Key:
[1] = target: T1, human protein arginine deiminase 4 (hPAD4), wild type (human, UniProt Q9UM07, biotin on the N-terminal AviTag); assay: negative-stain EM; hPAD4 incubated with Fab fragments in equimolar amounts; 2D micrographs; uranyl formate stain; settings: both partners purified
T1 construct: Protein arginine deiminase 4, human; 'full length hPAD4 (74 kDa)'; PreScission or TEV site between the tags and PAD4; Tags were captured on streptavidin in BLI and ELISA; In solution it is in a dimer-monomer equilibrium; also called hPADI4; WT hPAD4; source: BirA-expressing E. coli (C43 (DE3) Pro+ or BL21 Gold (DE3)), purified (Ni-NTA, 0.5 mM TCEP); not shown: AviTag, N-terminal, kept

[2] = target: T2, hPAD4 R8E–Y435A double mutant (human, UniProt Q9UM07, R8E | Y435A); assay: BLI; Octet RED384; biotinylated hPAD4 (WT or mutant) on streptavidin biosensors, purified binder as analyte; TBSTB; calcium concentration not told for these experiments; 1:1 monovalent model; settings: both partners purified
T2 construct: Protein arginine deiminase 4, human, double mutant; Mutant of the hPAD4 construct m1; also called R8E/Y435 double mutant; source: cloned and expressed as hPAD4 (E. coli, Ni-NTA)

hPAD4 Y435A = target: T3, hPAD4 Y435A (human, UniProt Q9UM07, Y435A); assay: as above; settings: both partners purified
T3 construct: Protein arginine deiminase 4, human, point mutant; Mutant of the hPAD4 construct m1; source: cloned and expressed as hPAD4 (E. coli, Ni-NTA)

hPAD4 R8E = target: T4, hPAD4 R8E (human, UniProt Q9UM07, R8E); assay: as above; settings: both partners purified
T4 construct: Protein arginine deiminase 4, human, point mutant; Mutant of the hPAD4 construct m1; source: cloned and expressed as hPAD4 (E. coli, Ni-NTA)

[3] = target: T5, mouse protein arginine deiminase 4 (mPAD4) (Mus musculus, UniProt Q9Z183, biotin on the N-terminal AviTag); assay: BLI; Octet RED384; biotinylated mPAD4 on streptavidin biosensors, antibody as analyte; TBSTB; 10 mM Ca2+; settings: both partners purified
T5 construct: Protein arginine deiminase 4, mouse; PreScission or TEV site between the tags and PAD4; also called murine PAD4; source: BirA-expressing E. coli (C43 (DE3) Pro+ or BL21 Gold (DE3)), purified (Ni-NTA, 0.5 mM TCEP); not shown: AviTag, N-terminal, kept

[4] = target: T1, human protein arginine deiminase 4 …; assay: BLI; binding of the functional human antibodies to PAD4, PAD2 and PAD3; who was immobilised and the antibody format are not told for this experiment; settings: both partners purified
PAD2 = target: T6, PAD2 (Homo sapiens (assumed), UniProt Q9Y2J8); assay: as above; settings: both partners purified
T6 construct: PAD2, commercially available; also called protein arginine deiminase 2

[5] = target: T1, human protein arginine deiminase 4 …; assay: BLI; Octet RED384; biotinylated hPAD4 on streptavidin biosensors, antibody (IgG by the legend) as analyte; TBSTB; 2 and 10 mM Ca2+; 1:1 monovalent model; settings: both partners purified
[6] = target: T5, mouse protein arginine deiminase 4 …; assay: BLI; Octet RED384; biotinylated mPAD4 on streptavidin biosensors, antibody as analyte; TBSTB; calcium-free form of mPAD4; settings: both partners purified
[7] = target: T1, human protein arginine deiminase 4 …; assay: cell-based or functional assay
[8] = target: T1, human protein arginine deiminase 4 …; assay: BLI; Octet RED384; biotinylated hPAD4 (WT or mutant) on streptavidin biosensors, purified binder as analyte; TBSTB; calcium concentration not told for these experiments; 1:1 monovalent model; settings: both partners purified
PAD3 = target: T7, PAD3 (Homo sapiens (assumed), UniProt Q9ULW8); assay: BLI; binding of the functional human antibodies to PAD4, PAD2 and PAD3; who was immobilised and the antibody format are not told for this experiment; settings: both partners purified
T7 construct: PAD3, commercially available; also called protein arginine deiminase 3
T7 sequence (Q9ULW8 whole entry): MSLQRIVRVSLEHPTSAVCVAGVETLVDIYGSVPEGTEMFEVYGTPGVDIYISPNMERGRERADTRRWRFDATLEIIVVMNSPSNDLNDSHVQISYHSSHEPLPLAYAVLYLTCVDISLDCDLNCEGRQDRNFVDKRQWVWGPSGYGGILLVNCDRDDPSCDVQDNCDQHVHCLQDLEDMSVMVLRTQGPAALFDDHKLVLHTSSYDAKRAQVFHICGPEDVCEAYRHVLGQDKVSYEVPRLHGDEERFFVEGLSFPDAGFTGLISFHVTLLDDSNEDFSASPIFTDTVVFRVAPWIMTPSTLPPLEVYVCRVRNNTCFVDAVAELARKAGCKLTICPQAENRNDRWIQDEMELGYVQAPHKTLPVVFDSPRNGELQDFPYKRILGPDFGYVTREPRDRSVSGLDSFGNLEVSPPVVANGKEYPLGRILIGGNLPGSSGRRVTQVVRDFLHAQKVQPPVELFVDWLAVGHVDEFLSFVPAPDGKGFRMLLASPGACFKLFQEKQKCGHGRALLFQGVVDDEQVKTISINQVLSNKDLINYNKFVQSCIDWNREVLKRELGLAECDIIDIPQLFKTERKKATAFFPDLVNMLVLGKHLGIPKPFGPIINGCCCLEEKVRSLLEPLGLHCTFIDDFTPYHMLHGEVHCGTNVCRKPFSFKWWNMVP

T1 sequence (Q9UM07 whole entry, the tested form may be a part): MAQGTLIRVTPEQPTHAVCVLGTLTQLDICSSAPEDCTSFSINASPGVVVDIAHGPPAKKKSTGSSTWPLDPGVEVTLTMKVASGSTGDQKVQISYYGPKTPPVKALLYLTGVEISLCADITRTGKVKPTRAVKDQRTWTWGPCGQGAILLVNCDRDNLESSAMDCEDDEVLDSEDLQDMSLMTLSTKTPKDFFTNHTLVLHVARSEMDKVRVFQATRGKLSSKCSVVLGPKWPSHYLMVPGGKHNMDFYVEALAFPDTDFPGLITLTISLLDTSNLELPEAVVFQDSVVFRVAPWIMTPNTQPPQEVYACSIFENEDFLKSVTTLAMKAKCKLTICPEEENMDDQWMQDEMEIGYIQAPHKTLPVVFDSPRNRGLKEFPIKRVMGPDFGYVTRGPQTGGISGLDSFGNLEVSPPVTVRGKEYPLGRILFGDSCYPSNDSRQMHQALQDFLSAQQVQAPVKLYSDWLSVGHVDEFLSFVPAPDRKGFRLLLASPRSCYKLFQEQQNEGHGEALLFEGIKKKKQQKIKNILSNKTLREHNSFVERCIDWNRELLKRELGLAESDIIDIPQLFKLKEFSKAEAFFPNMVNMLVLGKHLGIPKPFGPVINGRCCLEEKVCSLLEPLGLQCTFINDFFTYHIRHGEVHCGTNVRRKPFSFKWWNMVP
T5 sequence (Q9Z183 whole entry): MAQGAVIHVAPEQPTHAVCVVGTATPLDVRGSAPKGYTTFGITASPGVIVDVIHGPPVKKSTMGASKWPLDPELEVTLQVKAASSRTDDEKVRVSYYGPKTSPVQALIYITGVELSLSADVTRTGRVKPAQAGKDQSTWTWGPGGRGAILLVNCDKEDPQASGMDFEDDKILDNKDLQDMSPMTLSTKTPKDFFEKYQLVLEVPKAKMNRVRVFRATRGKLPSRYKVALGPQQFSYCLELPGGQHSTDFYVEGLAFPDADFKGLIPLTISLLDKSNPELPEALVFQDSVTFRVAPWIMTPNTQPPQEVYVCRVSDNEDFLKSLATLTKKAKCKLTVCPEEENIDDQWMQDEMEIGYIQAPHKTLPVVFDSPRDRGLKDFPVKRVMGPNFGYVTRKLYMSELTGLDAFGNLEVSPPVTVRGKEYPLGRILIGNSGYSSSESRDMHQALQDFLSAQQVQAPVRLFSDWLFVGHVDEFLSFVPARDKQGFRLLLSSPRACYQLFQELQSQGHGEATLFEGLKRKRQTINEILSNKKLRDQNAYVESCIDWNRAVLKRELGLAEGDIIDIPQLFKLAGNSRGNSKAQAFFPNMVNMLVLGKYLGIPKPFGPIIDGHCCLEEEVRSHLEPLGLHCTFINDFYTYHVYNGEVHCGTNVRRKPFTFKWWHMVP
T2 sequence (Q9UM07 whole entry R8E/Y435A): as the sequence (Q9UM07 whole entry, the tested form may be a part) above, with R8E, Y435A counted along it
T6 sequence (Q9Y2J8 whole entry): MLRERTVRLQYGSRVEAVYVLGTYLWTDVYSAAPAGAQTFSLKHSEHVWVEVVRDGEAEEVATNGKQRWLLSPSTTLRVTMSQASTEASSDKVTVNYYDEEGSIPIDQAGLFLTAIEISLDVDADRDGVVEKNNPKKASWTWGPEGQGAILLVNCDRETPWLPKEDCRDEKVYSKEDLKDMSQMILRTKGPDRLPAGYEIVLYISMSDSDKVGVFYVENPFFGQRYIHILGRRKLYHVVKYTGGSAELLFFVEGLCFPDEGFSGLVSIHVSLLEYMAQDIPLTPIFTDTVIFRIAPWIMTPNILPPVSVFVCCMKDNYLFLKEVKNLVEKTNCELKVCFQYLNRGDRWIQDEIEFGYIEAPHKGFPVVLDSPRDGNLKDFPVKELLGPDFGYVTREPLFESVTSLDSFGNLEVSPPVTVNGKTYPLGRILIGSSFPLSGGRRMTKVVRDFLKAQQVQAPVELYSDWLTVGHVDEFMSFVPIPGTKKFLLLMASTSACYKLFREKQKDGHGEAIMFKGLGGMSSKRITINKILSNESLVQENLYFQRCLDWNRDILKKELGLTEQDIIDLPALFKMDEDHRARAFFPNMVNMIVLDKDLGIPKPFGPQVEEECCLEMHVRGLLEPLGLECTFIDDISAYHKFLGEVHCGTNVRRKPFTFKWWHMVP
T3 sequence (Q9UM07 whole entry Y435A): as the sequence (Q9UM07 whole entry, the tested form may be a part) above, with Y435A counted along it
T4 sequence (Q9UM07 whole entry R8E): as the sequence (Q9UM07 whole entry, the tested form may be a part) above, with R8E counted along it

B1: hI281 Fab (Fab, V domains shown)
VH: EVQLVESGGGLVQPGGSLRLSCAASGFNVSYSSIHWVRQAPGKGLEWVASIYPYYGSTSYADSVKGRFTISADTSKNTAYLQMNSLRAEDTAVYYCARQMYYWMFSKLALDYWGQGTLVTVSS
VL: DIQMTQSPSSLSASVGDRVTITCRASQSVSSAVAWYQQKPGKAPKLLIYSASSLYSGVPSRFSGSRSGTDFTLTISSLQPEDFATYYCQQSYYRTLFTFGQGTKVEIK
notes: Fab heavy chain of hI281; light chain of hI281; From synthetic Fab-phage library E (4D5-type scaffold); also called Fab-hI281; source: E. coli C43 (DE3) Pro+, purified (Ni-NTA)
B1: binds [1].

B2: hA362 Fab (Fab, V domains shown)
VH: EVQLVESGGGLVQPGGSLRLSCAASGFNVSYYSIHWVRQAPGKGLEWVASISPYYGSTYYADSVKGRFTISADTSKNTAYLQMNSLRAEDTAVYYCARHPYRKGYSGLDYWGQGTLVTVSS
VL: DIQMTQSPSSLSASVGDRVTITCRASQSVSSAVAWYQQKPGKAPKLLIYSASSLYSGVPSRFSGSRSGTDFTLTISSLQPEDFATYYCQQSSYLPLFTFGQGTKVEIK
notes: Fab heavy chain of hA362; light chain of hA362; also called Fab hA362; source: E. coli C43 (DE3) Pro+, purified (Ni-NTA)
For B2, the “fold decrease of binding affinity against WT hPAD4” value (“fold decrease of binding affinity” below) [2] was ~160 fold, the “fold decrease of binding affinity” value (hPAD4 Y435A) was ~10 fold and the “fold decrease of binding affinity” value (hPAD4 R8E) was ~3 fold. B2: binds [1].

B3: mA342-c3 (antibody, V domains shown)
VH: EVQLVESGGGLVQPGGSLRLSCAASGFNVYSSSIHWVRQAPGKGLEWVASISSSSGYTYYADSVKGRFTISADTSKNTAYLQMNSLRAEDTAVYYCARYSASIYYYSGYPAYHAGLDYWGQGTLVTVSS
VL: DIQMTQSPSSLSASVGDRVTITCRASQSVSSAVAWYQQKPGKAPKLLIYSASSLYSGVPSRFSGSRSGTDFTLTISSLQPEDFATYYCQQWSYSRLATFGQGTKVEIK
notes: as the heavy chain of m20 with the stated changes; as the light chain of m20 with the stated change; The text names it mA342-c3, the legends mA342-c4
B3: binds [3].

B4: hA288 Fab (Fab, V domains shown)
VH: EVQLVESGGGLVQPGGSLRLSCAASGFNVYYSSIHWVRQAPGKGLEWVASIYSYSGSTSYADSVKGRFTISADTSKNTAYLQMNSLRAEDTAVYYCARYWPKMAGYWYIYRFALDYWGQGTLVTVSS
VL: DIQMTQSPSSLSASVGDRVTITCRASQSVSSAVAWYQQKPGKAPKLLIYSASSLYSGVPSRFSGSRSGTDFTLTISSLQPEDFATYYCQQYRQYNLITFGQGTKVEIK
notes: Fab heavy chain of hA288; light chain of hA288; source: E. coli C43 (DE3) Pro+, purified (Ni-NTA)
B4: binds [1].

B5: hA362 IgG (antibody, V domains shown)
VH: EVQLVESGGGLVQPGGSLRLSCAASGFNVSYYSIHWVRQAPGKGLEWVASISPYYGSTYYADSVKGRFTISADTSKNTAYLQMNSLRAEDTAVYYCARHPYRKGYSGLDYWGQGTLVTVSS
VL: DIQMTQSPSSLSASVGDRVTITCRASQSVSSAVAWYQQKPGKAPKLLIYSASSLYSGVPSRFSGSRSGTDFTLTISSLQPEDFATYYCQQSSYLPLFTFGQGTKVEIK
notes: heavy chain of hA362 fused to hIgG1-Fc (pFUSE-hIgG1-Fc); as the light chain of m13; IgG1; source: Expi293, transiently cotransfected, purified (protein A or Ni-NTA); copies: 2 + 2
B5: binds [4]; no binding (PAD2).

B6: hI281 IgG (antibody, V domains shown)
VH: EVQLVESGGGLVQPGGSLRLSCAASGFNVSYSSIHWVRQAPGKGLEWVASIYPYYGSTSYADSVKGRFTISADTSKNTAYLQMNSLRAEDTAVYYCARQMYYWMFSKLALDYWGQGTLVTVSS
VL: DIQMTQSPSSLSASVGDRVTITCRASQSVSSAVAWYQQKPGKAPKLLIYSASSLYSGVPSRFSGSRSGTDFTLTISSLQPEDFATYYCQQSYYRTLFTFGQGTKVEIK
notes: heavy chain of hI281 fused to hIgG1-Fc (pFUSE-hIgG1-Fc); as the light chain of m10; IgG1; source: Expi293, transiently cotransfected, purified (protein A or Ni-NTA); copies: 2 + 2
B6: binds [5].

B7: mA342 IgG (antibody, V domains shown)
VH: EVQLVESGGGLVQPGGSLRLSCAASGFNVYSSSIHWVRQAPGKGLEWVASISSSSGYTYYADSVKGRFTISADTSKNTAYLQMNSLRAEDTAVYYCARYSYSIYYYSGYPYYHMGLDYWGQGTLVTVSS
VL: DIQMTQSPSSLSASVGDRVTITCRASQSVSSAVAWYQQKPGKAPKLLIYSASSLYSGVPSRFSGSRSGTDFTLTISSLQPEDFATYYCQQWSYSRLITFGQGTKVEIK
notes: heavy chain of mA342 fused to hIgG1-Fc (pFUSE-hIgG1-Fc); light chain of mA342; also called WT mA342; source: Expi293, transiently cotransfected, purified (protein A or Ni-NTA); copies: 2 + 2
In the case of B7, the Kd [3] is reported as < 1 nM and the Kd [6] is reported as 200000 nM.

B8: E3 (affinity-matured variant of hI365) (antibody, V domains shown)
VH: EVQLVESGGGLVQPGGSLRLSCAASGFNFFYSIHWVRQAPGKGLEWVASISPYTDYTSYADSVKGRFTISADTSKNTAYLQMNSLRAEDTAVYYCARKHPGSYPFWGFALDYWGQGTLVTVSS
VL: DIQMTQSPSSLSASVGDRVTITCRASQSVSSAVAWYQQKPGKAPKLLIYSASSLYSGVPSRFSGSRSGTDFTLTISSLQPEDFATYYCQQSSSSLVTFGQGTKVEIK
For B8, the “IC50 of PAD4 inhibition” value [7] was 94 nM and the “IC50 of inhibition of PAD4 citrullination of histone H3 (western blot)” value [7] was 95 nM.

B9: hI365 G58D (antibody, V domains shown)
VH: EVQLVESGGGLVQPGGSLRLSCAASGFNFYYSIHWVRQAPGKGLEWVASISPYSDYTSYADSVKGRFTISADTSKNTAYLQMNSLRAEDTAVYYCARKHPGSYPFWGWALDYWGQGTLVTVSS
VL: DIQMTQSPSSLSASVGDRVTITCRASQSVSSAVAWYQQKPGKAPKLLIYSASSLYSGVPSRFSGSRSGTDFTLTISSLQPEDFATYYCQQSSSSLVTFGQGTKVEIK
notes: as the heavy chain of hI365 with the stated change; as the light chain of hI365; also called mutant G58D
B9: binds [8].

B10: E6 (affinity-matured variant of hI365) (antibody, V domains shown)
VH: EVQLVESGGGLVQPGGSLRLSCAASGFNFYYSIHWVRQAPGKGLEWVASISPYTDRTSYADSVKGRFTISADTSKNTAYLQMNSLRAEDTAVYYCARKHPGRYPNWGFALDYWGQGTLVTVSS
VL: DIQMTQSPSSLSASVGDRVTITCRASQSVSSAVAWYQQKPGKAPKLLIYSASSLYSGVPSRFSGSRSGTDFTLTISSLQPEDFATYYCQQSMSSQLVTFGQGTKVEIK
notes: variant of the heavy chain of hI365 from soft-randomisation libraries; variant of the light chain of hI365; CDR L3 of ten amino acids; also called clone E6
For B10, the “IC50 of inhibition of PAD4 citrullination of histone H3 (western blot)” value [7] was 13 nM and the binding result (PAD3) was “no binding”.

B11: hI365 IgG (antibody, V domains shown)
VH: EVQLVESGGGLVQPGGSLRLSCAASGFNFYYSIHWVRQAPGKGLEWVASISPYSGYTSYADSVKGRFTISADTSKNTAYLQMNSLRAEDTAVYYCARKHPGSYPFWGWALDYWGQGTLVTVSS
VL: DIQMTQSPSSLSASVGDRVTITCRASQSVSSAVAWYQQKPGKAPKLLIYSASSLYSGVPSRFSGSRSGTDFTLTISSLQPEDFATYYCQQSSSSLVTFGQGTKVEIK
notes: heavy chain of hI365 fused to hIgG1-Fc (pFUSE-hIgG1-Fc); as the light chain of m16; also called WT hI365; source: Expi293, transiently cotransfected, purified (protein A or Ni-NTA); copies: 2 + 2
Binder B11 has a Kd [5] of 1.2 nM.

B12: hI364 IgG (antibody, V domains shown)
VH: EVQLVESGGGLVQPGGSLRLSCAASGFNVYSSSIHWVRQAPGKGLEWVASISSSSGSTSYADSVKGRFTISADTSKNTAYLQMNSLRAEDTAVYYCARYSDHYYYWSYWSSWYSGLDYWGQGTLVTVSS
VL: DIQMTQSPSSLSASVGDRVTITCRASQSVSSAVAWYQQKPGKAPKLLIYSASSLYSGVPSRFSGSRSGTDFTLTISSLQPEDFATYYCQQSSSSLITFGQGTKVEIK
notes: heavy chain of hI364 fused to hIgG1-Fc (pFUSE-hIgG1-Fc); light chain of hI364; The activity screen and the selection were done with the Fab form; source: Expi293, transiently cotransfected, purified (protein A or Ni-NTA); copies: 2 + 2
For B12, the Kd [5] was 0.64 nM.

— publication PMC11142921, “Antibody discovery identifies regulatory mechanisms of protein arginine deiminase 4” (Nature Chemical Biology, 2024)
